From publication PMC9151557

Target: recombinant protein fibronectin-collagen peptide (FCP) (human)
Assay: SPR; OpenSPR (Nicoya); FCP fixed on an NTA sensor chip by capture coupling, integrin β3 injected sequentially; PBS running buffer, 25 °C; binding and dissociation 250 s each; regeneration with hydrochloric acid pH 2.0; one-to-one diffusion-corrected model, TraceDrawer (the discussion says integrin β3 was the captured one)

Chain of integrin β3 (P05106 27-718): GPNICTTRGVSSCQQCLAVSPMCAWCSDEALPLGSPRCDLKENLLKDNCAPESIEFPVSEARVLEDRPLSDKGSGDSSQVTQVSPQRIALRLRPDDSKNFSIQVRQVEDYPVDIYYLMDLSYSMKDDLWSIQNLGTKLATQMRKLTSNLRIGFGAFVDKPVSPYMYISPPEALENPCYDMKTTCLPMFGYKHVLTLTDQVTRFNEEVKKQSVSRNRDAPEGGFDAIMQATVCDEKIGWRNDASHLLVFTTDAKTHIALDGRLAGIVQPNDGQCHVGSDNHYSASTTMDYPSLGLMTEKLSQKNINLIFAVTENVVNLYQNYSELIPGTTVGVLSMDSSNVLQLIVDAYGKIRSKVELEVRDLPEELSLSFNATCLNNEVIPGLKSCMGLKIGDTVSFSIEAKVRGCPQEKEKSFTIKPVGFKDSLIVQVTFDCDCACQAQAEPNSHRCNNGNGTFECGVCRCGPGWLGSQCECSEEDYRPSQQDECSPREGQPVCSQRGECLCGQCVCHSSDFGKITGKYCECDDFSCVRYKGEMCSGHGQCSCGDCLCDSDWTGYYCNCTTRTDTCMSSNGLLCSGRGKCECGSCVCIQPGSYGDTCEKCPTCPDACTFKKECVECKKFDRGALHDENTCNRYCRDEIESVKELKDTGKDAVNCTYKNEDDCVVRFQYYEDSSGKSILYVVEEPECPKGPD

integrin β3 (from UniProt P05106 27-718) (receptor)
Kd: 53.7 nM
